Experimental data: US20220010021A1 (Sanofi, published 2022)

T1: beta-Klotho (KLB) (Homo sapiens (Human), UniProt Q86Z14 1-996)
T1 construct: also called β-Klotho; not shown: C-terminal His tag of the bought R&D Systems protein
T1 sequence: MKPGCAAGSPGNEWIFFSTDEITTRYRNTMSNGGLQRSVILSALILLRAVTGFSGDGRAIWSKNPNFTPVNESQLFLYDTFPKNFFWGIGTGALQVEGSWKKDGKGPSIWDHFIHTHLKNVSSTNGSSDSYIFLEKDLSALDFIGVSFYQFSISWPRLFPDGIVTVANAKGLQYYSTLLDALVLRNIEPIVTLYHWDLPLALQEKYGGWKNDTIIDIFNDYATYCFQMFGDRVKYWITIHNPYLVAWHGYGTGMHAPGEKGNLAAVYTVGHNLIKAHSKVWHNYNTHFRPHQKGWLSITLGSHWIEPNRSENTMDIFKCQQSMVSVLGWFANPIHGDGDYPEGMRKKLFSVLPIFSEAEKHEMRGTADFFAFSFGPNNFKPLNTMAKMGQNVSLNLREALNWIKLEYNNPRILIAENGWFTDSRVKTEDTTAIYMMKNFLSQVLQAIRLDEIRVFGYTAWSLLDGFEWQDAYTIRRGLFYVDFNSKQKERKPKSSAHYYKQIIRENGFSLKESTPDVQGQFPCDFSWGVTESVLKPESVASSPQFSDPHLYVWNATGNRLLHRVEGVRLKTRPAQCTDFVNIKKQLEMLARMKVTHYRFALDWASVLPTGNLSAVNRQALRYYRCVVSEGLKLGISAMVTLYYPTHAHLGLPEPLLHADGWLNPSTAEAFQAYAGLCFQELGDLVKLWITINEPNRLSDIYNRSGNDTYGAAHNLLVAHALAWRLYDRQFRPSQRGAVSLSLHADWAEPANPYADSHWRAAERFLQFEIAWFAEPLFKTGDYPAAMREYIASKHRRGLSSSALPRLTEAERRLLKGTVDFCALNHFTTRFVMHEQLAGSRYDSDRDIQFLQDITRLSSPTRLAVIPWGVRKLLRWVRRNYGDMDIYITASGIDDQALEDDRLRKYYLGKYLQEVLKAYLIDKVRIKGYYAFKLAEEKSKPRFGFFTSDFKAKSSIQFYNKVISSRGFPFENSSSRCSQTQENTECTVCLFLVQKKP

T2: human beta-Klotho (KLB) (human, UniProt Q86Z14 53-997)
T2 construct: the BLI off-rate screen was run with human and with monkey KLB; also called human KLB; ß-Klotho
T2 sequence (looked up): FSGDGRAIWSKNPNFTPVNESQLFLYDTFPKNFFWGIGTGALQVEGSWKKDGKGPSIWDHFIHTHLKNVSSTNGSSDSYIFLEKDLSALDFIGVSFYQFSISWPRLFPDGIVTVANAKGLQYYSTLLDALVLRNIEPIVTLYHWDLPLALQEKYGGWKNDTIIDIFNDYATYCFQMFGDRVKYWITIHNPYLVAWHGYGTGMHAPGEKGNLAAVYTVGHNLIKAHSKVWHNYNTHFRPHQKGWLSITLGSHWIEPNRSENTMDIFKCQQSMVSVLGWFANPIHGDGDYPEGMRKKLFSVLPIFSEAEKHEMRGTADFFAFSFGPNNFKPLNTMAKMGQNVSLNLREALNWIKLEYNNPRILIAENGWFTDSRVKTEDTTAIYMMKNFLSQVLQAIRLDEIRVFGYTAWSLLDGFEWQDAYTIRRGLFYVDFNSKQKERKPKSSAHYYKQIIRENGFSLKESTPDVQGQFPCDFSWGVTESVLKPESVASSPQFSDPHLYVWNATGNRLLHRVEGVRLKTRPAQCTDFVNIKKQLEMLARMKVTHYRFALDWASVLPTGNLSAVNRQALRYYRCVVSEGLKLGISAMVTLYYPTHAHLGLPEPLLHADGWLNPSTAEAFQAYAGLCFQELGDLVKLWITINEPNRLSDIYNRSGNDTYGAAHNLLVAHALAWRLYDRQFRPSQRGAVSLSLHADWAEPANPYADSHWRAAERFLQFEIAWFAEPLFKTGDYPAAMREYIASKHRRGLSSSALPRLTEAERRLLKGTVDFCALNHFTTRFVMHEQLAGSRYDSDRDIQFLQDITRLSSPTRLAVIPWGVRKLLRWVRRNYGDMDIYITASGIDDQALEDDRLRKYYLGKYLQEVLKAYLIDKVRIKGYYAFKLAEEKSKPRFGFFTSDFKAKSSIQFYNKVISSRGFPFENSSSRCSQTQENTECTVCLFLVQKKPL


Tests used:
[1] = molecular target: cell surface receptor composed of the tyrosine kinase receptor FGFR1c and co-receptor beta-Klotho (KLB) (human, UniProt P11362 22-822; Q86Z14 1-1044); experiment: cell-based or functional assay
beta-Klotho (KLB) = molecular target: T1, beta-Klotho (KLB); experiment: BLI (Octet) off-rate screening, mAb from supernatant on anti-hIgG Fc sensor, 5 nmol/L KLB;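 also: dissociation followed for 1800 s in D-PBS plus 0.1% BSA, antibody supernatants applied at 25 µg/mL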
[2] = molecular target: cell-surface receptor complex of human FGFR1c and beta-Klotho (KLB) on iLite FGF21 reporter cells (human, UniProt P11362 22-822; Q86Z14 1-1044); experiment: cell-based or functional assay
human beta-Klotho (KLB) = molecular target: T2, human beta-Klotho (KLB); experiment: BLI off-rate screening (Octet HTX), antibody from supernatant on anti-hIgG Fc capture sensors, KLB 5 nmol/L as analyte

Chain of cell surface receptor composed of the tyrosine kinase receptor FGFR1c and co-receptor beta-Klotho (KLB) (P11362 22-822, one chain of several): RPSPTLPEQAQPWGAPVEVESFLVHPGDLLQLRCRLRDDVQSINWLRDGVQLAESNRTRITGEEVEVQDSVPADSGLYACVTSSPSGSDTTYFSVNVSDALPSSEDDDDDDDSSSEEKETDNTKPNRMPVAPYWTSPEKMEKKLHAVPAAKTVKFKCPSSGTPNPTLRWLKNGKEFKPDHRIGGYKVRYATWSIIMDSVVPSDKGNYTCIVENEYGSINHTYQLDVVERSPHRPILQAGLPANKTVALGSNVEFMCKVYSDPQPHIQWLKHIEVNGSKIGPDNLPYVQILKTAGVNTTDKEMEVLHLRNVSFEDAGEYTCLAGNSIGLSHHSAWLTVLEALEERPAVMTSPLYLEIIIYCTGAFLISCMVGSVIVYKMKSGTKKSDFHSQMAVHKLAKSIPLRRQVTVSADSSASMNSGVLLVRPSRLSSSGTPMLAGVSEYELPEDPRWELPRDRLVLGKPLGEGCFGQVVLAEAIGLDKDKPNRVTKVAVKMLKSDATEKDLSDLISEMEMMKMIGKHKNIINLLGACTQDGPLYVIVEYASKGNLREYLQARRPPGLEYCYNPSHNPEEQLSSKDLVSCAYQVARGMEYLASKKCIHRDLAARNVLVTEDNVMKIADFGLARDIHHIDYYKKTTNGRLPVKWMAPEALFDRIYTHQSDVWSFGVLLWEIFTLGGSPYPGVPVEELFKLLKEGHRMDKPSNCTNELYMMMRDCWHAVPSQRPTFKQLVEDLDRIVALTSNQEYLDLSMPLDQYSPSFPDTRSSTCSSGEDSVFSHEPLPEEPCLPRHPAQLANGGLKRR

| Binder | Mean E max, Luciferase gene reporter assay [1] | Mean EC50, Luciferase gene reporter assay [1] | koff (beta-Klotho (KLB)) | Mean E max (%), Luciferase gene reporter assay [2] | Mean EC50 (nM), Luciferase gene reporter assay [2] | koff (human beta-Klotho (KLB)) |
| --- | --- | --- | --- | --- | --- | --- |
| 16H7 variant with light chain substitution V98I (antibody, human IgG4 S228P, lambda, V domains shown, IgG4 backbone was used) VH: not shown VL: SYVLTQPPSVSVAPGQTARITCGGNNIGSESVHWYQQKPGQAPVLVVYDDSDRPSGIPERFSGSNSGNTATLTISRVEAGDEADYYCQVWDGNSDHVIFGGGTKLTVLG | 116% | 0.105 nM | 3.3e-05 s⁻¹ | – | – | – |
| 16H7 variant with single point mutation V98S in the light chain (antibody, V domains shown, Tested from HEK293-F supernatant) VH: not shown VL: SYVLTQPPSVSVAPGQTARITCGGNNIGSESVHWYQQKPGQAPVLVVYDDSDRPSGIPERFSGSNSGNTATLTISRVEAGDEADYYCQVWDGNSDHVSFGGGTKLTVLG | – | – | – | 107% | 0.094 nM | 3.9e-05 s⁻¹ |
| 16H7 variant with single point mutation V98A in the light chain (antibody, V domains shown, Tested from HEK293-F supernatant) VH: not shown VL: SYVLTQPPSVSVAPGQTARITCGGNNIGSESVHWYQQKPGQAPVLVVYDDSDRPSGIPERFSGSNSGNTATLTISRVEAGDEADYYCQVWDGNSDHVAFGGGTKLTVLG | – | – | – | 99% | 0.139 nM | 4.6e-05 s⁻¹ |
| 16H7 variant with single point mutation V98Q in the light chain (antibody, V domains shown, Tested from HEK293-F supernatant) VH: not shown VL: SYVLTQPPSVSVAPGQTARITCGGNNIGSESVHWYQQKPGQAPVLVVYDDSDRPSGIPERFSGSNSGNTATLTISRVEAGDEADYYCQVWDGNSDHVQFGGGTKLTVLG | – | – | – | 111% | 0.121 nM | 3.7e-05 s⁻¹ |
| 16H7 variant with light chain substitution V98M (antibody, human IgG4 S228P, lambda, V domains shown, IgG4 backbone was used) VH: not shown VL: SYVLTQPPSVSVAPGQTARITCGGNNIGSESVHWYQQKPGQAPVLVVYDDSDRPSGIPERFSGSNSGNTATLTISRVEAGDEADYYCQVWDGNSDHVMFGGGTKLTVLG | 108% | 0.114 nM | 7.2e-05 s⁻¹ | – | – | – |
| 16H7 variant with single point mutation V98Y in the light chain (antibody, V domains shown, Tested from HEK293-F supernatant) VH: not shown VL: SYVLTQPPSVSVAPGQTARITCGGNNIGSESVHWYQQKPGQAPVLVVYDDSDRPSGIPERFSGSNSGNTATLTISRVEAGDEADYYCQVWDGNSDHVYFGGGTKLTVLG | – | – | – | 100% | 0.109 nM | 5.9e-05 s⁻¹ |
| 16H7 variant with single point mutation V98G in the light chain (antibody, V domains shown, Tested from HEK293-F supernatant) VH: not shown VL: SYVLTQPPSVSVAPGQTARITCGGNNIGSESVHWYQQKPGQAPVLVVYDDSDRPSGIPERFSGSNSGNTATLTISRVEAGDEADYYCQVWDGNSDHVGFGGGTKLTVLG | – | – | – | 105% | 0.118 nM | 1.1e-05 s⁻¹ |
| 16H7 variant with single point mutation V98K in the light chain (antibody, V domains shown, Tested from HEK293-F supernatant) VH: not shown VL: SYVLTQPPSVSVAPGQTARITCGGNNIGSESVHWYQQKPGQAPVLVVYDDSDRPSGIPERFSGSNSGNTATLTISRVEAGDEADYYCQVWDGNSDHVKFGGGTKLTVLG | – | – | – | 106% | 0.111 nM | 9e-05 s⁻¹ |
| 16H7 variant with single point mutation V98H in the light chain (antibody, V domains shown, Tested from HEK293-F supernatant) VH: not shown VL: SYVLTQPPSVSVAPGQTARITCGGNNIGSESVHWYQQKPGQAPVLVVYDDSDRPSGIPERFSGSNSGNTATLTISRVEAGDEADYYCQVWDGNSDHVHFGGGTKLTVLG | – | – | – | 103% | 0.107 nM | 1.8e-05 s⁻¹ |
| 16H7 variant with light chain substitution V98N (antibody, human IgG4 S228P, lambda, V domains shown, IgG4 backbone was used) VH: not shown VL: SYVLTQPPSVSVAPGQTARITCGGNNIGSESVHWYQQKPGQAPVLVVYDDSDRPSGIPERFSGSNSGNTATLTISRVEAGDEADYYCQVWDGNSDHVNFGGGTKLTVLG | 112% | 0.111 nM | 2.1e-05 s⁻¹ | – | – | – |
| 16H7 variant with single point mutation V98L in the light chain (antibody, V domains shown, Tested from HEK293-F supernatant) VH: not shown VL: SYVLTQPPSVSVAPGQTARITCGGNNIGSESVHWYQQKPGQAPVLVVYDDSDRPSGIPERFSGSNSGNTATLTISRVEAGDEADYYCQVWDGNSDHVLFGGGTKLTVLG | – | – | – | 105% | 0.121 nM | 0.00013 s⁻¹ |
| 16H7 variant with single point mutation V98W in the light chain (antibody, V domains shown, Tested from HEK293-F supernatant) VH: not shown VL: SYVLTQPPSVSVAPGQTARITCGGNNIGSESVHWYQQKPGQAPVLVVYDDSDRPSGIPERFSGSNSGNTATLTISRVEAGDEADYYCQVWDGNSDHVWFGGGTKLTVLG | – | – | – | 99% | 0.099 nM | 5.6e-05 s⁻¹ |
| 16H7 variant with single point mutation V98R in the light chain (antibody, V domains shown, Tested from HEK293-F supernatant) VH: not shown VL: SYVLTQPPSVSVAPGQTARITCGGNNIGSESVHWYQQKPGQAPVLVVYDDSDRPSGIPERFSGSNSGNTATLTISRVEAGDEADYYCQVWDGNSDHVRFGGGTKLTVLG | – | – | – | 99% | 0.099 nM | 0.00011 s⁻¹ |
| 16H7 variant with light chain substitution V98P (antibody, human IgG4 S228P, lambda, V domains shown, IgG4 backbone was used) VH: not shown VL: SYVLTQPPSVSVAPGQTARITCGGNNIGSESVHWYQQKPGQAPVLVVYDDSDRPSGIPERFSGSNSGNTATLTISRVEAGDEADYYCQVWDGNSDHVPFGGGTKLTVLG | 89% | 0.131 nM | 7.3e-05 s⁻¹ | – | – | – |
| 16H7 variant with light chain substitution V98Q (antibody, human IgG4 S228P, lambda, V domains shown, IgG4 backbone was used) VH: not shown VL: SYVLTQPPSVSVAPGQTARITCGGNNIGSESVHWYQQKPGQAPVLVVYDDSDRPSGIPERFSGSNSGNTATLTISRVEAGDEADYYCQVWDGNSDHVQFGGGTKLTVLG | 111% | 0.121 nM | 3.7e-05 s⁻¹ | – | – | – |
| 16H7 variant with single point mutation V98T in the light chain (antibody, V domains shown, Tested from HEK293-F supernatant) VH: not shown VL: SYVLTQPPSVSVAPGQTARITCGGNNIGSESVHWYQQKPGQAPVLVVYDDSDRPSGIPERFSGSNSGNTATLTISRVEAGDEADYYCQVWDGNSDHVTFGGGTKLTVLG | – | – | – | 99% | 0.088 nM | 3.1e-05 s⁻¹ |
